In US20210301005A1 (Genentech, published 2021):
Like-named read-outs stand apart in the source and are kept apart here.

T1: human TGFβ2, mature receptor-binding domain (human, UniProt P09858 303-414 (pig entry), The mature TGFβ2 is a disulfide-linked homodimer of this 112-residue chain. The 4A11 epitope spans both monomers (p-1207).)
T1 sequence: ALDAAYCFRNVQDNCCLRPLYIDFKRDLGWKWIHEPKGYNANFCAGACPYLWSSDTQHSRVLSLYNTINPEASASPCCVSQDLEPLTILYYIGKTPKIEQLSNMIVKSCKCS

T2: human TGFβ3, mature dimeric form (human, UniProt P10600 301-412)
T2 sequence: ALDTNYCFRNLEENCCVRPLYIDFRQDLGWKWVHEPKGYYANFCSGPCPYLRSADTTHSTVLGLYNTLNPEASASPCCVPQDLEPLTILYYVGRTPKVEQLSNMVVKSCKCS


Assays:
[1] = target: T3, human TGFβ1, mature receptor-binding domain (human, UniProt P01137 279-390); assay: cell-based or functional assay
[2] = target: T1, human TGFβ2, mature receptor-binding …; assay: cell-based or functional assay
[3] = target: T2, human TGFβ3, mature dimeric form; assay: cell-based or functional assay
[4] = target: T3, human TGFβ1, mature receptor-binding …; assay: cell-based or functional assay; remark: listed apart in the source
[5] = target: T1, human TGFβ2, mature receptor-binding …; assay: cell-based or functional assay; remark: listed apart in the source
[6] = target: T2, human TGFβ3, mature dimeric form; assay: cell-based or functional assay; remark: listed apart in the source
[7] = target: T1, human TGFβ2, mature receptor-binding …; assay: BIAcore T200
Experimental: (§1) For binding affinity determinations of all humanized 2A10 antibodies, Surface Plasmon Resonance (SPR) measurement with a BIAcore™-T200 instrument was used. Briefly, series S CM5 biosensor chip with protein A was first applied to capture each humanized 2A10 variant to achieve approximately 100 response units (RU) on each flow cell, following by injection of 3-fold serial dilutions of human TGFβ1, TGFβ2 or TGFβ3 (0.02 nM to 5 nM) in HBS-EP buffer (0.01M HEPES pH 7.4, 0.15M NaCl, 3 mM EDTA and 0.05% v/v surfactant P20) at 25° C. with a flow rate of 50 μl/min for kinetics measurement. Association rates (ko.) and dissociation rates (koff) were calculated using a simple one-to-one Langmuir binding model (BIAcore T200 evaluation software version 2.0) to determine the equilibrium dissociation constant (KD), which was calculated as the ratio koff/kₒₙ.
(§2) Binding affinity determinations of all humanized 4A11 antibodies were performed using SPR measurement with a BIAcore™-T200 instrument, as described above in Example 6 ([…]).

[8] = target: T2, human TGFβ3, mature dimeric form; assay: BIAcore T200
Experimental: as §1, §2

[9] = target: T1, human TGFβ2, mature receptor-binding …; assay: cell-based or functional assay; remark: listed apart in the source

T3 sequence (P01137 279-390 limits assumed): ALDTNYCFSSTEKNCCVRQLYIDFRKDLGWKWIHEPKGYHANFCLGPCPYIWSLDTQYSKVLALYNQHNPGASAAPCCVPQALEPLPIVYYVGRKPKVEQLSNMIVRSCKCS

Binder | HEKBlue TGFβ blocking IC50 [1] | HEKBlue TGFβ blocking IC50 [2] | HEKBlue TGFβ blocking IC50 [3] | HEKBlue TGFβ blocking IC50 [4] | HEKBlue TGFβ blocking IC50 [5] | HEKBlue TGFβ blocking IC50 [6] | Kd [7] | Kd [8] | fold loss of blocking against h4A11.v7 [9]
h4A11.v7.4 (antibody, V domains shown) VH: EQQLQESGPGLVKPSETLSLTCTVTGFSLSSYTVNWVRQPAGKGLEWIGYISYGGSAYYASWANGRFTISKDSSKNQVSLKLSSVTAADTAVYFCARHMQVGGAPTGSMAAFDPWGPGTLVTVSS VL: EIVLTQSPGTLSLSPGERATLSCQSSQSVYNNNYLSWFQQKPGQPPRLLIYGASTLTSGVPDRFSGSGSGTDFTLTISRLEPEDFAVYYCAGGYSGSSDKYAFGGGTKVEIK |  |  |  | > 200 nM | 0.01 nM | 0.05 nM | 6.4 pM | 4.3 pM | 
h4A11.v7.7 (antibody, V domains shown) VH: EQQLQESGPGLVKPSETLSLTCTVTGFSLSSYTVNWVRQPAGKGLEWIGYISYGGSAYYASWANGRFTISKDSSKNQVSLKLSSVTAADTAVYFCARHMQVGGAPTGSMAAFDPWGPGTLVTVSS VL: EAVLTQSPGTLSLSPGERATLSCQSSQSVYNNNYLSWFQQKPGQPPRLLIYGASTLTSGIPDRFSGSGSGTDFTLTISRLEPEDFAVYYCAGGYSGSSDKYAFGGGTKVEIK |  |  |  | > 200 nM | 0.04 nM | 0.04 nM | 6.3 pM | 6.1 pM | 
h4A11.v7.6 (antibody, V domains shown) VH: EQQLQESGPGLVKPSETLSLTCTVTGFSLSSYTVNWVRQPAGKGLEWIGYISYGGSAYYASWANGRFTISKDSSKNQVSLKLSSVTAADTAVYFCARHMQVGGAPTGSMAAFDPWGPGTLVTVSS VL: EAVLTQSPGTLSLSPGERATLSCQSSQSVYNNNYLSWFQQKPGQAPRLLIYGASTLTSGVPDRFSGSGSGTDFTLTISRLEPEDFAVYYCAGGYSGSSDKYAFGGGTKVEIK |  |  |  | > 200 nM | 0.01 nM | 0.01 nM | 5.8 pM | 6.5 pM | 
h4A11.v7.8 (antibody, human IgG1, kappa, N297G) heavy: not shown light: EAVLTQSPGTLSLSPGERATLSCQSSQSVYNNNYLSWFQQKPGQPPRLLIYGASTLTSGVPDRFSGSGSGTDFTLTISRLEPEDFAVYYCAGGYSGSSDKYAFGGGTKVEIKRTVAAPSVFIFPPSDEQLKSGTASVVCLLNNFYPREAKVQWKVDNALQSGNSQESVTEQDSKDSTYSLSSTLTLSKADYEKHKVYACEVTHQGLSSPVTKSFNRGEC |  |  |  | > 200 nM | 0.06 nM | 0.03 nM | 4.5 pM | 5.3 pM | 
h4A11.v7.1 (antibody, human IgG1, kappa, N297G) heavy: not shown light: EAVLTQSPGTLSLSPGERATLSCQSSQSVYNNNYLSWFQQKPGQPPRLLIYGASTLTSGVPDRFSGSGSGTDFTLTISRLEPEDFAVYYCAGGYSGSSDKYAFGGGTKVEIKRTVAAPSVFIFPPSDEQLKSGTASVVCLLNNFYPREAKVQWKVDNALQSGNSQESVTEQDSKDSTYSLSSTLTLSKADYEKHKVYACEVTHQGLSSPVTKSFNRGEC |  |  |  | > 33 nM | 0.09 nM | 0.03 nM |  |  | 
h4A11.v7.2 (antibody, human IgG1, kappa, N297G) heavy: not shown light: EAVLTQSPGTLSLSPGERATLSCQSSQSVYNNNYLSWFQQKPGQPPRLLIYGASTLTSGVPDRFSGSGSGTDFTLTISRLEPEDFAVYYCAGGYSGSSDKYAFGGGTKVEIKRTVAAPSVFIFPPSDEQLKSGTASVVCLLNNFYPREAKVQWKVDNALQSGNSQESVTEQDSKDSTYSLSSTLTLSKADYEKHKVYACEVTHQGLSSPVTKSFNRGEC |  |  |  | > 33 nM | 0.03 nM | 0.01 nM |  |  | 
h4A11.v7.3 (antibody, human IgG1, kappa, N297G) heavy: not shown light: EAVLTQSPGTLSLSPGERATLSCQSSQSVYNNNYLSWFQQKPGQPPRLLIYGASTLTSGVPDRFSGSGSGTDFTLTISRLEPEDFAVYYCAGGYSGSSDKYAFGGGTKVEIKRTVAAPSVFIFPPSDEQLKSGTASVVCLLNNFYPREAKVQWKVDNALQSGNSQESVTEQDSKDSTYSLSSTLTLSKADYEKHKVYACEVTHQGLSSPVTKSFNRGEC |  |  |  | > 33 nM | 0.03 nM | 0.03 nM |  |  | 
h4A11.v7.9 (antibody, human IgG1, kappa, N297G, V domains shown) VH: EQQLQESGPGLVKPSETLSLTCTVTGFSLSSYTVNWIRQPAGKGLEWIGYISYGGSAYYASWANGRFTISKDSSKNQVSLKLSSVTAADTAVYFCARHMQVGGAPTGSMAAFDPWGPGTLVTVSS VL: EAVLTQSPGTLSLSPGERATLSCQSSQSVYNNNYLSWFQQKPGQPPRLLIYGASTLTSGVPDRFSGSGSGTDFTLTISRLEPEDFAVYYCAGGYSGSSDKYAFGGGTKVEIKR |  |  |  | > 200 nM | 0.08 nM | 0.02 nM | 4.9 pM | 5.7 pM | 

Second part, the binder after the results:

HEKBlue TGFβ blocking IC50 [1] | HEKBlue TGFβ blocking IC50 [2] | HEKBlue TGFβ blocking IC50 [3] | HEKBlue TGFβ blocking IC50 [4] | HEKBlue TGFβ blocking IC50 [5] | HEKBlue TGFβ blocking IC50 [6] | Kd [7] | Kd [8] | fold loss of blocking against h4A11.v7 [9] | Binder
> 200 nM | 0.02 nM | > 200 nM |  |  |  |  |  |  | h6F12.v1.1 (antibody, human IgG1, kappa, N297G, V domains shown) VH: EVTLKESGPVLVKPTETLTLTCTVSGFSLTTYNVHWVRQPPGKALEWMGLIWNTGGTRYNSALKSRLTISKDTSKSQVVLTMTNMDPVDTATYYCARDPVPNKWHFDFWGPGTLVTVSS VL: DIQMTQSPSTLSASVGDRVTITCLASEDIYSNLAWYQQKPGKAPKLLIYDARSLQDGVPSRFSGSESGPEYTLTISSLQPDDFATYFCQQHHAYPFTFGQGTKVEIKR
 |  |  | > 200 nM | 0.01 nM | 0.03 nM | 6 pM | 6.5 pM |  | h4A11.v7.12 (antibody, human IgG1, kappa, N297G, V domains shown) VH: EQQLQESGPGLVKPSETLSLTCTVTGFSLSSYTVNWVRQPAGKGLEWIGYISYGGSAYYASWANGRFTISKDTSKNQVSLKLSSVTAADTAVYFCARHMQVGGAPTGSMAAFDPWGPGTLVTVSS VL: EAVLTQSPGTLSLSPGERATLSCQSSQSVYNNNYLSWFQQKPGQPPRLLIYGASTLTSGVPDRFSGSGSGTDFTLTISRLEPEDFAVYYCAGGYSGSSDKYAFGGGTKVEIKR
 |  |  | > 200 nM | 0.35 nM | 0.04 nM | 4.9 pM | 5.5 pM | 4 fold | h4A11.v7.14 (antibody, human IgG1, kappa, N297G, V domains shown) VH: EQQLQESGPGLVKPSETLSLTCTVTGFSLSSYTVNWVRQPAGKGLEWIGYISYGGSAYYASWANGRFTISKDSSKNQVSLKLSSVTAADTAVYYCARHMQVGGAPTGSMAAFDPWGPGTLVTVSS VL: EAVLTQSPGTLSLSPGERATLSCQSSQSVYNNNYLSWFQQKPGQPPRLLIYGASTLTSGVPDRFSGSGSGTDFTLTISRLEPEDFAVYYCAGGYSGSSDKYAFGGGTKVEIKR
 |  |  | > 200 nM | 0.02 nM | 0.02 nM | 5.6 pM | 6.8 pM |  | h4A11.v7.10 (antibody, human IgG1, kappa, N297G, V domains shown) VH: EQQLQESGPGLVKPSETLSLTCTVTGFSLSSYTVNWVRQPAGKGLEWIGYISYGGSAYYASWANGRVTISKDSSKNQVSLKLSSVTAADTAVYFCARHMQVGGAPTGSMAAFDPWGPGTLVTVSS VL: EAVLTQSPGTLSLSPGERATLSCQSSQSVYNNNYLSWFQQKPGQPPRLLIYGASTLTSGVPDRFSGSGSGTDFTLTISRLEPEDFAVYYCAGGYSGSSDKYAFGGGTKVEIKR
 |  |  | > 200 nM | 0.09 nM | 0.02 nM | 4.7 pM | 4.8 pM |  | h4A11.v7.15 (antibody, human IgG1, kappa, N297G) heavy: not shown light: EAVLTQSPGTLSLSPGERATLSCQSSQSVYNNNYLSWFQQKPGQPPRLLIYGASTLTSGVPDRFSGSGSGTDFTLTISRLEPEDFAVYYCAGGYSGSSDKYAFGGGTKVEIKRTVAAPSVFIFPPSDEQLKSGTASVVCLLNNFYPREAKVQWKVDNALQSGNSQESVTEQDSKDSTYSLSSTLTLSKADYEKHKVYACEVTHQGLSSPVTKSFNRGEC
